Where a chain is given by its changes, count along the chain named. Names may count otherwise.
T1: TNFR1 (Homo sapiens, UniProt P19438)
T1 chain: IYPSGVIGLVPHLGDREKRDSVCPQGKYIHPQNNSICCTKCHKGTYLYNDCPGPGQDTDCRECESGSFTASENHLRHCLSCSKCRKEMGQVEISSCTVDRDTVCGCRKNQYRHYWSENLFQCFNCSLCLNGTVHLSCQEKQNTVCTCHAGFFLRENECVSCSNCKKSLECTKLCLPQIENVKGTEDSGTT

B1: Y101G (designed binder)
chain: SMEEEVEKAAKEYEKKKKEAIEKHLEKLKAKDKEAAERFLKELEEAAKEYAKDEAKTMSEEEAKRRAKKYKEKVLLSELSEEEQKEIKEAEEKLVRTILKGVEEAAK
B2: K100S (designed binder)
chain: B1 chain with K100S, G101Y
B3: R38E (designed binder)
chain: B1 chain with R38E, G101Y
B4: R38D (designed binder)
chain: B1 chain with R38D, G101Y
B5: K33Y (designed binder)
chain: B1 chain with K33Y, G101Y
B6: Y70M (designed binder)
chain: B1 chain with Y70M, G101Y
B7: K73T (designed binder)
chain: B1 chain with K73T, G101Y
B8: E5C (designed binder)
chain: B1 chain with E5C, G101Y
B9: L25E (designed binder)
chain: B1 chain with L25E, G101Y
B10: E60K (designed binder)
chain: B1 chain with E60K, G101Y
B11: E19S (designed binder)
chain: B1 chain with E19S, G101Y
B12: K88H (designed binder)
chain: B1 chain with K88H, G101Y
B13: K69L (designed binder)
chain: B1 chain with K69L, G101Y
B14: E7W (designed binder)
chain: B1 chain with E7W, G101Y
B15: L43K (designed binder)
chain: B1 chain with L43K, G101Y
B16: E49N (designed binder)
chain: B1 chain with E49N, G101Y
B17: D32I (designed binder)
chain: B1 chain with D32I, G101Y
B18: E86Q (designed binder)
chain: B1 chain with E86Q, G101Y
B19: R66F (designed binder)
chain: B1 chain with R66F, G101Y
B20: A51Y (designed binder)
chain: B1 chain with A51Y, G101Y
B21: E49F (designed binder)
chain: B1 chain with E49F, G101Y
B22: K107G (designed binder)
chain: B1 chain with G101Y, K107G
B23: A20N (designed binder)
chain: B1 chain with A20N, G101Y
B24: E60Y (designed binder)
chain: B1 chain with E60Y, G101Y
B25: K56S (designed binder)
chain: B1 chain with K56S, G101Y
B26: A46Y (designed binder)
chain: B1 chain with A46Y, G101Y
B27: K85W (designed binder)
chain: B1 chain with K85W, G101Y
B28: Y70L (designed binder)
chain: B1 chain with Y70L, G101Y
B29: K85M (designed binder)
chain: B1 chain with K85M, G101Y
B30: K85Q (designed binder)
chain: B1 chain with K85Q, G101Y
B31: K69W (designed binder)
chain: B1 chain with K69W, G101Y
B32: E22V (designed binder)
chain: B1 chain with E22V, G101Y
B33: H24N (designed binder)
chain: B1 chain with H24N, G101Y
B34: E42R (designed binder)
chain: B1 chain with E42R, G101Y
B35: K29S (designed binder)
chain: B1 chain with K29S, G101Y
B36: K11N (designed binder)
chain: B1 chain with K11N, G101Y
B37: L76W (designed binder)
chain: B1 chain with L76W, G101Y
B38: V74A (designed binder)
chain: B1 chain with V74A, G101Y
B39: K17Q (designed binder)
chain: B1 chain with K17Q, G101Y
B40: E22Y (designed binder)
chain: B1 chain with E22Y, G101Y
B41: E34H (designed binder)
chain: B1 chain with E34H, G101Y
B42: K68M (designed binder)
chain: B1 chain with K68M, G101Y
B43: E44N (designed binder)
chain: B1 chain with E44N, G101Y
B44: K56N (designed binder)
chain: B1 chain with K56N, G101Y
B45: E62P (designed binder)
chain: B1 chain with E62P, G101Y
B46: V102F (designed binder)
chain: B1 chain with G101Y, V102F
B47: V6D (designed binder)
chain: B1 chain with V6D, G101Y
B48: K8P (designed binder)
chain: B1 chain with K8P, G101Y
B49: F39L (designed binder)
chain: B1 chain with F39L, G101Y
B50: S1E (designed binder)
chain: B1 chain with S1E, G101Y
B51: L28E (designed binder)
chain: B1 chain with L28E, G101Y
B52: I21R (designed binder)
chain: B1 chain with I21R, G101Y
B53: E89S (designed binder)
chain: B1 chain with E89S, G101Y
B54: K23V (designed binder)
chain: B1 chain with K23V, G101Y
B55: A36R (designed binder)
chain: B1 chain with A36R, G101Y
B56: D53K (designed binder)
chain: B1 chain with D53K, G101Y
B57: I87E (designed binder)
chain: B1 chain with I87E, G101Y
B58: E103V (designed binder)
chain: B1 chain with G101Y, E103V
B59: R96F (designed binder)
chain: B1 chain with R96F, G101Y

Molecular target: T1, TNFR1
Assay: yeast display SC50

Binder | apparent Kd (screen) [nM]
B1 | 0.446
B2 | 0.653
B3 | 2.73
B4 | 3
B5 | 0.593
B6 | 6.43
B7 | 13.8
B8 | 1.05
B9 | 2.73
B10 | 1.69
B11 | 0.446
B12 | 0.49
B13 | 0.446
B14 | 12.5
B15 | 0.869
B16 | 10.4
B17 | 4.83
B18 | 0.446
B19 | 22.2
B20 | 0.49

Binder | apparent Kd (screen) [nM]
B21 | 9.41
B22 | 1.05
B23 | 0.539
B24 | 0.718
B25 | 7.78
B26 | 0.49
B27 | 0.446
B28 | 8.56
B29 | 0.956
B30 | 0.539
B31 | 11.4
B32 | 1.16
B33 | 0.446
B34 | 7.78
B35 | 0.446
B36 | 0.446
B37 | 3
B38 | 16.7
B39 | 1.16
B40 | 1.27

Binder | apparent Kd (screen) [nM]
B41 | 0.446
B42 | 1.27
B43 | 1.05
B44 | 4.39
B45 | 15.2
B46 | 10.4
B47 | 13.8
B48 | 3.63
B49 | 1.16
B50 | 0.49
B51 | 0.539
B52 | 0.869
B53 | 0.49
B54 | 0.869
B55 | 0.718
B56 | 0.208
B57 | 9.41
B58 | 0.539
B59 | 2.48

Reference: article PMC12416549 (2024)
